The assay has as its target KLC2^TPR (tetratricopeptide repeat domain of kinesin light chain 2), wild type (UniProt O88448 217-426). Nature of the assay: fluorescence polarisation.

Turning to TNLEWDDSAI [SKIP^WD peptide (ten amino acid long peptide centered on the WD motif of SKIP)], the Kd was 24 µM.
The result for PSTDWEDGDL [SKIP^WE peptide (equivalent peptide centered on the WE motif of SKIP)] reads above 110 µM.

In general, Kd refers to the concentration at which binding is half-saturated. Higher therefore signals a looser complex.
